This is an account of results in IntAct's records for PubMed 21209940.

Sequences and labels used below:
B1: DNA-binding protein inhibitor ID-2 (Mus musculus), P41136 (parent)
chain: MKAFSPVRSVRKNSLSDHSLGISRSKTPVDDPMSLLYNMNDCYSKLKELVPSIPQNKKVTKMEILQHVIDYILDLQIALDSHPTIVSLHHQRPGQNQASRTPLTTLNTDISILSLQASEFPSELMSNDSKVLCG
B2: Myoblast determination protein 1 (Mus musculus), P10085 (parent)
chain: MELLSPPLRDIDLTGPDGSLCSFETADDFYDDPCFDSPDLRFFEDLDPRLVHMGALLKPEEHAHFPTAVHPGPGAREDEHVRAPSGHHQAGRCLLWACKACKRKTTNADRRKAATMRERRRLSKVNEAFETLKRCTSSNPNQRLPKVEILRNAIRYIEGLQALLRDQDAAPPGAAAFYAPGPLPPGRGSEHYSGDSDASSPRSNCSDGMMDYSGPPSGPRRQNGYDTAYYSEAARESRPGKSAAVSSLDCLSSIVERISTDSPAAPALLLADAPPESPPGPPEGASLSDTEQGTQTPSPDAAPQCPAGSNPNAIYQVL
partner: B1 chain

In the first experiment the parent is B1. Conditions: with myod1_mouse Myod1, P10085.
Turning to MKAFSPVRSVRKNSLSDHSLGISRSKTPVDDPMSLLYNMNDCYSKLKELVPSIPQNKKVTKMEILQHVIDYILDLQIALDSHPTIKSLHHQRPGQNQASRTPLTTLNTDISILSLQASEFPSELMSNDSKVLCG [V86K], the “effect of a mutation on the interaction” value is recorded as “decreasing interaction”.

As for MKAFSPVRSVRKNSLSDHSLGISRSKTPVDDPMSLLYNMNDCYSKLKELVPSIPQNKKVTKMEILQHVIDYILDLQIALDSHPTIVSLHHQRPGQNQASRTPLTTLNTDISILSLQASEFPSEKMSNDSKVLCG [L124K], the “effect of a mutation on the interaction” value is reported as “decreasing interaction”.

In a further experiment the parent is B2. The note with it: with id2_mouse Id2, P41136.
On to MELLSPPLRDIDLTGPDGSLCSFETADDFYDDPCFDSPDLRFFEDLDPRLVHMGALLKPEEHAHFPTAVHPGPGAREDEHVRAPSGHHQAGRCLLWACKACKRKTTNADRRKAATMRERRRLSKVNEAFETLKRCTSSNPNQRLPKVEILRNAIRYIEGKQALLRDQDAAPPGAAAFYAPGPLPPGRGSEHYSGDSDASSPRSNCSDGMMDYSGPPSGPRRQNGYDTAYYSEAARESRPGKSAAVSSLDCLSSIVERISTDSPAAPALLLADAPPESPPGPPEGASLSDTEQGTQTPSPDAAPQCPAGSNPNAIYQVL [L160K], for which the “effect of a mutation on the interaction” value is “decreasing interaction”. Take MELLSPPLRDIDLTGPDGSLCSFETADDFYDDPCFDSPDLRFFEDLDPRLVHMGALLKPEEHAHFPTAVHPGPGAREDEHVRAPSGHHQAGRCLLWACKACKRKTTNADRRKAATMRERRRLSKVNEAFETLKRCTSSNPNQRLPKVEILRNAIRYIEGLKALLRDQDAAPPGAAAFYAPGPLPPGRGSEHYSGDSDASSPRSNCSDGMMDYSGPPSGPRRQNGYDTAYYSEAARESRPGKSAAVSSLDCLSSIVERISTDSPAAPALLLADAPPESPPGPPEGASLSDTEQGTQTPSPDAAPQCPAGSNPNAIYQVL [Q161K]: the “effect of a mutation on the interaction” value was “decreasing interaction”. Regarding MELLSPPLRDIDLTGPDGSLCSFETADDFYDDPCFDSPDLRFFEDLDPRLVHMGALLKPEEHAHFPTAVHPGPGAREDEHVRAPSGHHQAGRCLLWACKACKRKTTNADRRKAATMRERRRLSKVNEAFETLKRCTSSNPNQRLPKVEKLRNAIRYIEGLQALLRDQDAAPPGAAAFYAPGPLPPGRGSEHYSGDSDASSPRSNCSDGMMDYSGPPSGPRRQNGYDTAYYSEAARESRPGKSAAVSSLDCLSSIVERISTDSPAAPALLLADAPPESPPGPPEGASLSDTEQGTQTPSPDAAPQCPAGSNPNAIYQVL [I149K], the “effect of a mutation on the interaction” value is “disrupting interaction”. Regarding MELLSPPLRDIDLTGPDGSLCSFETADDFYDDPCFDSPDLRFFEDLDPRLVHMGALLKPEEHAHFPTAVHPGPGAREDEHVRAPSGHHQAGRCLLWACKACKRKTTNADRRKAATMRERRRLSKVNEAFETLKRCTSSNPNQRLPKVEILRNAIRYKEGLQALLRDQDAAPPGAAAFYAPGPLPPGRGSEHYSGDSDASSPRSNCSDGMMDYSGPPSGPRRQNGYDTAYYSEAARESRPGKSAAVSSLDCLSSIVERISTDSPAAPALLLADAPPESPPGPPEGASLSDTEQGTQTPSPDAAPQCPAGSNPNAIYQVL [I157K], the “effect of a mutation on the interaction” value was “disrupting interaction”. MELLSPPLRDIDLTGPDGSLCSFETADDFYDDPCFDSPDLRFFEDLDPRLVHMGALLKPEEHAHFPTAVHPGPGAREDEHVRAPSGHHQAGRCLLWACKACKRKTTNADRRKAATMRERRRLSKVNEAFETLKRCTSSNPNQRLPKVEIKRNAIRYIEGLQALLRDQDAAPPGAAAFYAPGPLPPGRGSEHYSGDSDASSPRSNCSDGMMDYSGPPSGPRRQNGYDTAYYSEAARESRPGKSAAVSSLDCLSSIVERISTDSPAAPALLLADAPPESPPGPPEGASLSDTEQGTQTPSPDAAPQCPAGSNPNAIYQVL [L150K]: the “effect of a mutation on the interaction” value was “decreasing interaction”.
